As usually defined, the Kd is a measure of binding affinity in units of concentration. Higher therefore signals weaker binding.

Holding throughout (assay): AUC
In assay [1] the target is Mouse E-cadherin EC1-2 E11D (mouse).
The target of assay [2] is Mouse E-cadherin EC1-2 P5A (mouse).
Assay [3] has as its target Mouse E-cadherin EC1-2 P5A P6A (mouse).
Assay [4] deals with Mouse E-cadherin EC1-2 P5G P6G (mouse).
The target in assay [5] is Mouse E-cadherin EC1-2 P5S P6S (mouse).
Assay [6] concerns the target Mouse E-cadherin EC1-2 P6A (mouse).
The target in assay [7] is Mouse E-cadherin EC1-2 W2F (mouse).
The target of assay [8] is Mouse E-cadherin EC1-2 wild-type (mouse).
For assay [9], the target named is Mouse E-cadherin EC1-2 with one alanine inserted between residues 2 and 3 (mouse).
In assay [10] the target is Mouse E-cadherin EC1-2 with two alanines inserted between residues 2 and 3 (mouse).
Assay [11] has as its target Mouse E-cadherin EC2-3 F108W del-TQE (mouse).
In assay [12] the target is Mouse N-cadherin EC1-2 P5A P6A (mouse).
Assay [13] addresses Mouse N-cadherin EC1-2 wild type (mouse).
For assay [14], the target named is Mouse cadherin-11 EC1-2 F8A (mouse).
In assay [15] the target is Mouse cadherin-11 EC1-2 wild type (mouse).

Substance “Mouse E-cadherin EC1-2 E11D (domain or fragment)” came in with a Kd in assay [1] of 71.2 µM.

Substance “Mouse E-cadherin EC1-2 P5A (domain or fragment)” had a Kd in [2] of 2.9 µM.

As to “Mouse E-cadherin EC1-2 P5A P6A (domain or fragment)”, in assay [3], the Kd worked out at 3.7 µM. In turn, “Mouse E-cadherin EC1-2 P5G P6G (domain or fragment)” registered an equilibrium dissociation constant (Kd) in [4] of 2.7 µM.

“Mouse E-cadherin EC1-2 P5S P6S (domain or fragment)”: the Kd in [5] was 2.9 µM. Substance “Mouse E-cadherin EC1-2 P6A (domain or fragment)” came in with a Kd in assay [6] of 4.8 µM.

In [7], “Mouse E-cadherin EC1-2 W2F (domain or fragment)” yielded a Kd of 246 µM.

“Mouse E-cadherin EC1-2 wild-type (domain or fragment)”: the equilibrium dissociation constant (Kd) in [8] is 96.5 µM. “Mouse E-cadherin EC1-2 with one alanine inserted between residues 2 and 3 (domain or fragment)”: the dissociation constant (Kd) in [9] came out at 1520 µM.

“Mouse E-cadherin EC1-2 with two alanines inserted between residues 2 and 3 (domain or fragment)”: the Kd in [10] was found to be 195 µM. As for “Mouse E-cadherin EC2-3 F108W del-TQE (domain or fragment)”, the Kd in assay [11] is 46.5 µM.

“Mouse N-cadherin EC1-2 P5A P6A (domain or fragment)” yielded a dissociation constant Kd in [12] of 3.6 µM. As to “Mouse N-cadherin EC1-2 wild type (domain or fragment)”, the Kd in assay [13] is 25.8 µM.

“Mouse cadherin-11 EC1-2 F8A (domain or fragment)”: the equilibrium dissociation constant (Kd) in assay [14] came to 3.7 µM. Substance “Mouse cadherin-11 EC1-2 wild type (domain or fragment)” showed a Kd in assay [15] of 25.2 µM.

(Values after article PMC3113550.)
